Consider 6 proteins from publication PMC4949553.

Positions count from the first letter of the chain named. Names and notes keep the numbering of the source.

Series [1] in a line: polymer sandwich ELISA of cell lysates. As to conditions: glycan lost. (In general: ELISA stands for enzyme-linked immunosorbent assay.)
The nature of series [2]: non-denaturing PAGE and western blot, COS-7. As to conditions: glycan lost. (A western blot detects proteins with antibodies after separation by electrophoresis.)
Series [3] in a line: western densitometry, insoluble fraction, MG132 treatment. As to conditions: glycan lost; control: G392E NS.
The nature of series [4]: western blot, soluble plus insoluble intracellular fractions. The following applies: glycan lost; control: G392E NS.
The nature of series [5]: 35S pulse-chase, total intracellular NS up to 24 h. The following applies: glycan lost; control: G392E NS.
Series [6] in a line: SDS/PAGE western blot densitometry of insoluble fraction. As to conditions: glycan lost; control: wild type NS.

B1: G392E neuroserpin (G392E NS): G392E/N321A (protein)
parent chain: MAFLGLFSLLVLQSMATGATFPEEAIADLSVNMYNRLRATGEDENILFSPLSIALAMGMMELGAQGSTQKEIRHSMGYDSLKNGEEFSFLKEFSNMVTAKESQYVMKIANSLFVQNGFHVNEEFLQMMKKYFNAAVNHVDFSQNVAVANYINKWVENNTNNLVKDLVSPRDFDAATYLALINAVYFKGNWKSQFRPENTRTFSFTKDDESEVQIPMMYQQGEFYYGEFSDGSNEAGGIYQVLEIPYEGDEISMMLVLSRQEVPLATLEPLVKAQLVEEWANSVKKQKVEVYLPRFTVEQEIDLKDVLKALGITEIFIKDANLTGLSDNKEIFLSKAIHKSFLEVNEEGSEAAAVSGMIAISRMAVLYPQVIVDHPFFFLIRNRRTGTILFMERVMHPETMNTSGHDFEEL
Regarding B1, the oligomerisation entry in series [1] (control: G392E NS) and in series [2] (control: G392E NS) was “increases” each time. Besides, the “other: insoluble NS accumulating under proteasome inhibition” value in series [3] is “increases”. Moreover, the localisation_or_trafficking entry in series [4] is “increases”.

B2: G392E neuroserpin (G392E NS): G392E/N157A (protein)
parent chain: B1 parent chain
As for B2, the oligomerisation result in series [2] (control: G392E NS) is “increases”. In addition, in series [4], the localisation_or_trafficking entry was “increases”.

B3: neuroserpin (NS), wild type: N321A (protein)
parent chain: B1 parent chain with E392G
On to B3, for which the oligomerisation result in series [1] (control: wild type NS) and in series [2] (control: wild type NS) was “increases” in each case.

B4: G392E neuroserpin (G392E NS): G392E/N401A (protein)
parent chain: B1 parent chain
With B4, the oligomerisation entry in series [1] (control: G392E NS) and in series [2] (control: G392E NS) was “increases” in each case. For the same protein, the degradation_or_half_life result in series [5] is listed as “no change”. Besides, the “other: insoluble NS accumulating under proteasome inhibition” value in series [3] was “increases”. In addition, the localisation_or_trafficking result in series [4] is “increases”.

B5: neuroserpin (NS), wild type: N157A/N321A (protein)
parent chain: B1 parent chain with E392G
Regarding B5, the oligomerisation result in series [1] (control: wild type NS) and in series [2] (control: wild type NS) was “increases” each time. The “other: amount in insoluble intracellular fraction” value in series [6] was “increases”.

B6: neuroserpin (NS), wild type: N157A (protein)
parent chain: B1 parent chain with E392G
Regarding B6, the oligomerisation entry in series [1] (control: wild type NS) and in series [2] (control: wild type NS) was “increases” each time.
